Test results as given in patent US20130011436A1.

Biological target: CXCR4 on murine 4T1 breast carcinoma cells (murine) (UniProt P70658)
Test: cell-based or functional assay

Chain of UniProt P70658 (P70658 whole entry): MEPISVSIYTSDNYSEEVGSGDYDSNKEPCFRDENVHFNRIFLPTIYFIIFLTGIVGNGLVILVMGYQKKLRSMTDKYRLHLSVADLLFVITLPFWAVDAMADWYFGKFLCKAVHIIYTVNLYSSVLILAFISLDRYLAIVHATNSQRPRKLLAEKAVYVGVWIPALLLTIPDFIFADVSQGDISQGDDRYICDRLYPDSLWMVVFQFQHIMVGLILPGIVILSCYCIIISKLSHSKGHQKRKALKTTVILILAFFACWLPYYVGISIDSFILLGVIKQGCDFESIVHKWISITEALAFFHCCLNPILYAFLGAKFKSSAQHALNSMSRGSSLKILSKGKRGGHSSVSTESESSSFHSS

CTCE-9908 peptide showed an inhibition of migration of 4T1 cells toward SDF1 (1,000 ng/ml), transwell assay, antagonist at 100 µg/ml of over 80%.
